Biological target: Aedes aegypti membrane-bound alkaline phosphatase (Aa-mALP), 54 kDa His(6)-tagged (Aedes aegypti)
Assay: ELISA; sandwich ELISA; Aa-mALP (2.5 µg) coated on 96-well plates in 50 mM carbonate buffer pH 9.0; ligands at 100, 200, 300 and 400 nM, 37 °C, 2 h; detected with rabbit anti-Cry4Ba antibodies and HRP anti-rabbit IgG; apparent Kd; relative binding with Wt-R203Q set at 100%

Substance	Kd [nM]
21 kDa isolated Cry4Ba-DIII fragment (domain or fragment)	110
65 kDa Cry4Ba-R203Q full-length (trypsin-activated) toxin (natural protein)	80

Reference: article PMC8402544
